Biological target: BD1-EGFP-HOTag6 (UniProt O60885 44-168)
Test: cell-based or functional assay

brightness of the EGFP droplets after ARV-825: 10 fold
B1: CRBN-EGFP-HOTag3 (other, not shown: large carriers)
chain: MAGEGDQQDAAHNMGNHLPLLPAESEEEDEMEVEDQDSKEAKKPNIINFDTSLPTSHTYLGADMEEFHGRTLHDDDSCQVIPVLPQVMMILIPGQTLPLQLFHPQEVSMVRNLIQKDRTFAVLAYSNVQEREAQFGTTAEIYAYREEQDFGIEIVKVKAIGRQRFKVLELRTQSDGIQQAKVQILPECVLPSTMSAVQLESLNKCQIFPSKPVSREDQCSYKWWQKYQKRKFHCANLTSWPRWLYSLYDAETLMDRIKKQLREWDENLKDDSLPSNPIDFSYRVAACLPIDDVLRIQLLKIGSAIQRLRCELDIMNKCTSLCCKQCQETEITTKNEIFSLSLCGPMAAYVNPHGYVHETLTVYKACNLNLIGRPSTEHSWFPGYAWTVAQCKICASHIGWKFTATKKDMSPQKFWGLTRSALLPTIPDTEDEISPDKVILCLGEIAKSLKEIAKSLKEIAWSLKEIAKSLKG

— patent US20210215708A1 (University of California, published 2021)
